Data from patent publication US20240124607A1 (Merck Sharp & Dohme, published 2024).

Key:
CEACAM5 Nterm IgV-His = molecular target: T1, CEACAM5 Nterm IgV-His (human, UniProt P06731 35-144); test: SPR, hFc capt, 37C
T1 construct: also called N-term domain of hCEACAM5
T1 sequence: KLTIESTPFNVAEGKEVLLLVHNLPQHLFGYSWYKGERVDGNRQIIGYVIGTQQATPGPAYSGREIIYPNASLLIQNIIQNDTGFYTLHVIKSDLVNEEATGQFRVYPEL
Experimental: (§1) The various hCEACAM5 protein domains were titrated over the captured antibody at 50 μL/min for 180 sec of association and 300 sec of dissociation. The assay was run at 37° C. in HBS-EP+ running buffer, pH 7.4. The surface of the CM5 chip was regenerated using 3M MgCl₂.

CEACAM5 N-A1-B1-His = molecular target: T2, CEACAM5 N-A1-B1-His (human, UniProt P06731 35-322, limits assumed); test: SPR, hFc capt, 37C
T2 sequence: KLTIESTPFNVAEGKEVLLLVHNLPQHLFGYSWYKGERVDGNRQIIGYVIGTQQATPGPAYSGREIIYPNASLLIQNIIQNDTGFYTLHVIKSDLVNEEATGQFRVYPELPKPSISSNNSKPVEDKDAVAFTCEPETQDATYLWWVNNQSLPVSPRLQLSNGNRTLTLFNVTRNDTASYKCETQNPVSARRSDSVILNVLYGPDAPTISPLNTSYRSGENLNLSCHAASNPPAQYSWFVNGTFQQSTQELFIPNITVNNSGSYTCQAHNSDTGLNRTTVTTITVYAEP
Experimental: as §1

Human CEACAM5 (E398) = molecular target: T3, Human CEACAM5 (E398) (human, UniProt P06731 35-685, limits assumed); test: SPR, anti-hFc capture, 37C, pH 6.0
T3 construct: also called hCEACAM5
T3 sequence: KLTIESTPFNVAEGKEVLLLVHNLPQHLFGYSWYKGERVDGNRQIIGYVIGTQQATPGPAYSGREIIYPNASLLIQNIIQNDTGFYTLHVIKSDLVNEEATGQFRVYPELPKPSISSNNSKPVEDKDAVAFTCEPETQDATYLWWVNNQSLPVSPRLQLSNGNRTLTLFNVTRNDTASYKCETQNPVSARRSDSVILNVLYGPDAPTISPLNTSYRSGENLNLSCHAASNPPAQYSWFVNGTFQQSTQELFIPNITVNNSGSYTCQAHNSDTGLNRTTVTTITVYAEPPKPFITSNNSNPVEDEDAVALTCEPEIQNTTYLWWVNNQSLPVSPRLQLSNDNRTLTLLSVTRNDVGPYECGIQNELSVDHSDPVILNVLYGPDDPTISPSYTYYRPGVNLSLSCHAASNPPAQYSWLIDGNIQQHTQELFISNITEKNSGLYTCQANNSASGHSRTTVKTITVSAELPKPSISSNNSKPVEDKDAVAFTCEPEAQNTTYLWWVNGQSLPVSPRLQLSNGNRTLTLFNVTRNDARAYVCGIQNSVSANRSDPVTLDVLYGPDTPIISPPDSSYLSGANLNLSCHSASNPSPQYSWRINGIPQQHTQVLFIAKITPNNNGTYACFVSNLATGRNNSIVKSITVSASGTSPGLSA
Experimental: To determine the affinity and cross-reactivity of CEACAM5 TriNKET molecules, AB0411, AB0466, or AB0621 TriNKETs were captured using an anti-human Fc capture antibody (Cytiva, #BR100839) immobilized onto a Biacore CM5 standard surface sensor chip following manufacturer instructions. Human or cynomolgus CEACAM5 were titrated over captured AB0411, AB0466, and AB0621 as 2-fold serial dilutions starting from 300 nM. Association was monitored for 300 sec and dissociation was monitored for 600 sec. The assay was run at 37° C. at pH 7.4 and 6.0. The surface of the CM5 chip was regenerated with 10 mM glycine pH 1.5 for 20 sec at 100 μL/min.

[1] = molecular target: T4, human CD16A (FcγRIIIA) V158 (human, UniProt P08637 17-208, limits assumed, biotinylated in the assay of Table 21); test: SPR, biotin-CD16A on SA chip, 25C, pH 6.0
T4 construct: also called CD16A (V158/V176)
Experimental: (§2) Binding to human and cynomolgus CD16A was assessed using biotinylated CD16A captured on a streptavidin (SA) sensor chip (Cytiva, #BR100531). AB0411, AB0466, or AB0621 was titrated from 1500 nM at 25° C. at 30 μL/min for 150 sec association followed by 300 sec dissociation. The surface of the chip was regenerated with 2 mM sodium hydroxide for 5 sec at 30 μL/min. Running buffer was HBS-EP+. […] The V158 isoform bound ˜2- to 3-fold tighter than the F158 isoform as expected.

Cyno FcγRIIIA = molecular target: T5, Cyno FcγRIIIA (cynomolgus monkey, UniProt Q8SPW2 17-208, limits assumed, biotinylated); test: SPR, biotin-CD16A on SA chip, 25C, pH 6.0
T5 construct: also called cynomolgus CD16A
Experimental: as §2

[2] = molecular target: T6, human CEACAM6 on Ba/F3 cells (human, UniProt P40199 35-320); test: flow cytometry on Ba/F3 cells expressing human CEACAM6, fold over background (FOB), 5-fold dilutions from 1600 nM
T6 construct: whole, on cells
T6 sequence (looked up): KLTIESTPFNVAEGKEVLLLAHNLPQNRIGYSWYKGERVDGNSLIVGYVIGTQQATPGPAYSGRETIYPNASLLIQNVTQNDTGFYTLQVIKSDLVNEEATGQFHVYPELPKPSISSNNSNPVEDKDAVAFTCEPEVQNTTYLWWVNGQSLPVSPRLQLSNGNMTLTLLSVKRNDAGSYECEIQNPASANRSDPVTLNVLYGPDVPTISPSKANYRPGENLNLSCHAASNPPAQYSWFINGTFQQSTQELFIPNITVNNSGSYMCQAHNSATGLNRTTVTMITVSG
Experimental: To examine the binding specificity of the TriNKETs to CEACAM5 compared to other CEACAM family members, Ba/F3 cells were engineered to express one of human CEACAM1, CEACAM6, CEACAM8, or cynomolgus CEACAM5. CEACAM5 TriNKETs were evaluated by flow cytometry starting at 1600 nM followed by 7 5-fold dilutions.

T4 sequence (P08637 17-208 F176V limits assumed): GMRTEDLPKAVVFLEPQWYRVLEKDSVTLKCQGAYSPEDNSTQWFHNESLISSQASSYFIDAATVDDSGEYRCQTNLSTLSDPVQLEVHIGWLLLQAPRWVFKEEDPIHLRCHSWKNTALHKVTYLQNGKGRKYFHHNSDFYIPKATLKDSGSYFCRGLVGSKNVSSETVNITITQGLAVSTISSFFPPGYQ
T5 sequence (Q8SPW2 17-208 limits assumed): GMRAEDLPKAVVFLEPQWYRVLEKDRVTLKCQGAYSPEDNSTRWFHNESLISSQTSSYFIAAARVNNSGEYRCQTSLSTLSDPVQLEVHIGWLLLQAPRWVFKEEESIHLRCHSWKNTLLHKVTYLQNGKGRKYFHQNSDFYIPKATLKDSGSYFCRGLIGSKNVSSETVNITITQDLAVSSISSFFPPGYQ

binding result (CEACAM5 Nterm IgV-His): no binding
Kd (CEACAM5 N-A1-B1-His): 11 nM
kon (CEACAM5 N-A1-B1-His): 150000 M⁻¹ s⁻¹
Kd (Human CEACAM5 (E398)): 14 nM
kon (Human CEACAM5 (E398)): 140000 M⁻¹ s⁻¹
Kd [1]: 58 nM
koff [1]: 0.04 s⁻¹
kon [1]: 690000 M⁻¹ s⁻¹
Kd (Cyno FcγRIIIA): 25 nM
binding result [2]: no binding (tested: 1600 nM)
B1: AB0621 F3' CEACAM5 TriNKET (bispecific antibody, human IgG1, kappa)
chain: DIVMTQSPDSLAVSLGERATINCKSSHSLLYGNFQNNYLAWYQQKPGQPPKLLIYWASTRESGVPDRFSGSGSGTDFTLTISSLQAEDVAVYYCQQYYSYPYTFGCGTKLEIKGGGGSGGGGSGGGGSGGGGSQVQLVQSGAEVKKPGASVKVSCKASGYTFTAYTIHWVRQAPGQCLEWMGYINPSSGYTEYNQKFKDRTTLTADTSISTAYMELSRLRSDDTAVYYCTREGGLLWFDYWGQGTLVTVSSGSDKTHTCPPCPAPELLGGPSVFLFPPKPKDTLMISRTPEVTCVVVDVSHEDPEVKFNWYVDGVEVHNAKTKPREEQYNSTYRVVSVLTVLHQDWLNGKEYKCKVSNKALPAPIEKTISKAKGQPREPRVYTLPPCRDELTKNQVSLTCLVKGFYPSDIAVEWESNGQPENNYKTTPPVLVSDGSFTLYSKLTVDKSRWQQGNVFSCSVMHEALHNHYTQKSLSLSPG
heavy: EVQLVESGGGLVKPGGSLRLSCAASGFTFSSYSMNWVRQAPGKGLEWVSSISSSSSYIYYADSVKGRFTISRDNAKNSLYLQMNSLRAEDTAVYYCARGAPIGAAAGWFDPWGQGTLVTVSSASTKGPSVFPLAPSSKSTSGGTAALGCLVKDYFPEPVTVSWNSGALTSGVHTFPAVLQSSGLYSLSSVVTVPSSSLGTQTYICNVNHKPSNTKVDKKVEPKSCDKTHTCPPCPAPELLGGPSVFLFPPKPKDTLMISRTPEVTCVVVDVSHEDPEVKFNWYVDGVEVHNAKTKPREEQYNSTYRVVSVLTVLHQDWLNGKEYKCKVSNKALPAPIEKTISKAKGQPREPQVCTLPPSRDELTENQVSLTCLVKGFYPSDIAVEWESNGQPENNYKTTPPVLDSDGSFFLYSWLTVDKSRWQQGNVFSCSVMHEALHNHYTQKSLSLSPG
light: DIQMTQSPSSVSASVGDRVTITCRASQGISSWLAWYQQKPGKAPKLLIYAASSLQSGVPSRFSGSGSGTDFTLTISSLQPEDFATYYCQQGVSFPRTFGGGTKVEIKRTVAAPSVFIFPPSDEQLKSGTASVVCLLNNFYPREAKVQWKVDNALQSGNSQESVTEQDSKDSTYSLSSTLTLSKADYEKHKVYACEVTHQGLSSPVTKSFNRGEC
